This is an account of results in patent publication US20170023576A1 (ONCOMED PHARMACEUTICALS, published 2017).

For this experiment, the target named is T1, human NOTCH3 extracellular domain (human, UniProt Q9UM47 40-1643).
T1 construct: In the tissue IHC the target is endogenous NOTCH3 in tumor sections; also called NOTCH3 ECD
Description: screening by FACS, Western blot and IHC on FFPE pellets of HEK-293 cells transiently transfected with NOTCH ECD constructs. The source says:
Screening was first done by FACS, followed by Western blot analyses and then in IHC assays using HEK-293 cells transiently transfected with NOTCH1, NOTCH2, NOTCH3, or NOTCH4 ECD constructs. Starting with 68 supernatants from hybridoma cells, seven candidate antibodies were selected for further testing and optimization in IHC assays, 122M23, 122M25, 122M26, 122M27, 122M35, 122M36, and 122M40. […] The desired antibody needed to be specific for NOTCH3 ECD, so the staining had to be predominantly membrane localized, with minimal or no detectable background non-specific staining in transiently transfected cell pellets in FFPE format. In addition, the antibody had to give appropriate results on positive and negative control tissues.
(Flow cytometry measures light scatter and fluorescence of single cells or particles in a stream.)

T1 sequence (Q9UM47 40-1643 limits assumed): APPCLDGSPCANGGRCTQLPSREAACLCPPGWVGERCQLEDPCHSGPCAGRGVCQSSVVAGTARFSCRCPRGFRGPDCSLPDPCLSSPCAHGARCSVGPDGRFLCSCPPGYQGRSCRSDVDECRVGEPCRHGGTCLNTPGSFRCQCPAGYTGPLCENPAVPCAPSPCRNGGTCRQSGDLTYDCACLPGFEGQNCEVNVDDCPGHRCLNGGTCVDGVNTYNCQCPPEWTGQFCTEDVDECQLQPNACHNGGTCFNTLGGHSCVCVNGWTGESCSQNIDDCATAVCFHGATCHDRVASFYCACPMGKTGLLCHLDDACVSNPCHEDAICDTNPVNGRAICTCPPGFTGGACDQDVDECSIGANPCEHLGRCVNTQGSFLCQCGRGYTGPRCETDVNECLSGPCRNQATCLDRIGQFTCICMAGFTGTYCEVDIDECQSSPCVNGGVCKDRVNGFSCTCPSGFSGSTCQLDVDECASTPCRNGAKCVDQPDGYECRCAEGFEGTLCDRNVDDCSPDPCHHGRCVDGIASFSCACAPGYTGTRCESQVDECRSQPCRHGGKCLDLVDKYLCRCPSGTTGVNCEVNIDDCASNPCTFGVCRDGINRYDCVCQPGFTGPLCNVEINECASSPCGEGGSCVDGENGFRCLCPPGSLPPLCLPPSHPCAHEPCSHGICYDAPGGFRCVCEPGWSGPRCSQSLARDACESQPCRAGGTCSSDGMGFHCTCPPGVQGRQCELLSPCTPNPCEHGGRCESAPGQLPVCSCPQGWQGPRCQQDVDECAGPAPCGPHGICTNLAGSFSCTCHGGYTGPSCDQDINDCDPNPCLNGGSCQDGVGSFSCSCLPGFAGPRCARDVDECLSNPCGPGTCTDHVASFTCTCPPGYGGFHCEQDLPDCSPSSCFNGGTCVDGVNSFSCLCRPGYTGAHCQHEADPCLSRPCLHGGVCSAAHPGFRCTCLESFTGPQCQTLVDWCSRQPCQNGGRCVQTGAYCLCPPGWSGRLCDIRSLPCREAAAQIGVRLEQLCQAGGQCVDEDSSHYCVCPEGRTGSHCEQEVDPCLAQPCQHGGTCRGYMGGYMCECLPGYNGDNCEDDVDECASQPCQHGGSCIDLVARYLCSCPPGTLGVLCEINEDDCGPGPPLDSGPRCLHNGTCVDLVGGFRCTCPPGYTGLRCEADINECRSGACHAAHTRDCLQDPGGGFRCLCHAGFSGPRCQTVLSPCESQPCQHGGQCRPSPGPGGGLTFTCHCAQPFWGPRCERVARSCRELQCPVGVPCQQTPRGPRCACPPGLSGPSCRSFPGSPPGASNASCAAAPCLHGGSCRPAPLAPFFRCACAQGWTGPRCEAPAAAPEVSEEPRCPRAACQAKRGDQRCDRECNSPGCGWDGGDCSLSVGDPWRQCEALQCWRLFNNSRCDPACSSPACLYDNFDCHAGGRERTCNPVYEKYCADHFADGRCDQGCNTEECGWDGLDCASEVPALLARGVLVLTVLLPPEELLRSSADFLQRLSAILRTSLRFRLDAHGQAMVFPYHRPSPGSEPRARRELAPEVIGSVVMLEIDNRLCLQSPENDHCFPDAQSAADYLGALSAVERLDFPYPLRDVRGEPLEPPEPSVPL

B1: anti-NOTCH3 antibody 122M23 (antibody, V domains shown)
VH: QVQLQQSGAELARPGASVKMSCKASGYTFTKYTIHWVAQKPGQGLEWIGYINPSNDYTNYNQTFKDKATLTADKSSTTAYMQLISLTSADSTVFYCARGTTPYSLDYWGQGTSVTVSS
VL: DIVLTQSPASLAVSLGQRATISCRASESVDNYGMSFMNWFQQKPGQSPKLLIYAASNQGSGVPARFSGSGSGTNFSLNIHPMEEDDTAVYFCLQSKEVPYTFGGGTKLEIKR
notes: Murine monoclonal antibody from a hybridoma (ATCC PTA-121154); also called murine monoclonal antibody 122M23
Consider B1, for which the binding result is reported as “binds”.
